The text below walks through data of patent US11021531 (CENTIVAX, dated 2021).

Where a chain is given by its changes, count along the chain named.

The target of test [1] is SARS-Cov-2 Receptor Binding Domain (RBD) protein (SARS-CoV-2, UniProt P0DTC2 319-541). Put plainly: SPR (Carterra LSA), scFv captured via anti-V5, RBD as analyte, 1:1 fit.
For test [2], the target named is MERS Receptor Binding Domain (RBD) protein (MERS coronavirus, UniProt K9N5Q8 367-606). Put plainly: SPR (Carterra LSA), scFv captured via anti-V5, RBD as analyte.
Test [3] concerns the target SARS-CoV-1 Receptor Binding Domain (RBD) protein (SARS-CoV-1, UniProt P59594 306-527). Described as above.
Test [4] addresses SARS-CoV-2 spike protein (on pseudovirus / virus in the neutralisation assays) (SARS-CoV-2, UniProt P0DTC2 14-1273). Put plainly: cell-based or functional assay.

B1: COVID19_R01_B01 (scFv, V domains shown)
VH: EVQLVESGGGLVQPGGSLRLSCAASGFTFASHAMSWVRQAPGKGLEWVSGISSDGSITTYADSVKGRFTISRDNSKNTLYLQMNSLRAEDTAVYYCARDRGWYLDYWGQGTLVTVSS
VL: not shown
Usually Kd stands for the equilibrium constant for the complex coming apart. High values mean a looser complex, low ones a tighter complex. The koff is a measure of how fast the partners let go of each other. Read a high koff as a short-lived complex. What is called kon is the second-order rate constant of association. Higher therefore signals fast association. For B1, in test [1], the Kd stood at 12.5 nM, the dissociation rate constant (koff) amounted to 0.00055 s⁻¹ and the kon came to 44000 M⁻¹ s⁻¹.

B2: COVID19_R01_C08 (scFv, V domains shown)
VH: EVQLVESGGGLVQPGGSLRLSCAASGFSFSSYGMSWVRQAPGKGLEWVSAMNRDGSYIYYADSVKGRFTISRDNSKNTLYLQMNSLRAEDTAVYYCARDRSYYVGYWGQGTLVTVSS
VL: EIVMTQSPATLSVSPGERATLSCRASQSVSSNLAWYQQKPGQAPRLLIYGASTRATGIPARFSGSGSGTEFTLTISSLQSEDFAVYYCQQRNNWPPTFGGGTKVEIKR
notes: also called COVID19_R01_CO8
In test [1], B2 returned a Kd of 49.5 nM, a koff of 0.00379 s⁻¹ and a kon of 76600 M⁻¹ s⁻¹.

B3: COVID19_P04_E10 (scFv, V domains shown)
VH: B2 VH
VL: EIVMTQSPATLSVSPGERATLSCRASQSVRSNLAWYQQKPGQAPRLLIYGASTRATGIPARFSGSGSGTEFTLTISSLQSEDFAVYYCQQRNNWPPTFGGGTKVEIKR
As to B3, in test [1], the Kd turned out to be 4.4 nM, the koff was 0.00053 s⁻¹ and the kon is 120000 M⁻¹ s⁻¹. For the same molecule, in test [2], the binding result was “no binding (tested: 300 nM (highest analyte concentration))”. Moreover, the binding result in test [3] is given as “no binding (tested: 300 nM (highest analyte concentration))”.

B4: COVID19_P04_B10 (scFv, V domains shown)
VH: EVQLVESGGGLVQPGGSLRLSCAASGFRFSDAAIHWVRQAPGKGLEWVSAISGSGGSTYYADSVKGRFTISRDNSKNTLYLQMNSLRAEDTAVYYCARDRSYGIDYWGQGTLVTVSS
VL: not shown
In test [1], B4 returned a Kd of 2.5 nM, a koff of 0.0005 s⁻¹ and a kon of 200000 M⁻¹ s⁻¹. The binding result in test [2] is listed as “no binding (tested: 300 nM (highest analyte concentration))”. In test [3], the binding result is on record as “no binding (tested: 300 nM (highest analyte concentration))”.

B5: COVID19_P04_B03 (scFv, V domains shown)
VH: B4 VH with R28T, D31N, A32H, A33Y, I34M, H35S, G103Y, I104L
VL: B3 VL with V29I, R30G, S31T, N32Y, A34S, R91S, N92L, N93S, W94L, P96V
For the molecule B5, in test [1], the Kd stood at 19.7 nM, the koff is 0.0141 s⁻¹ and the association rate constant (kon) came to 716000 M⁻¹ s⁻¹. Further, in test [2], the binding result was “no binding (tested: 300 nM (highest analyte concentration))”. In test [3], the binding result is on record as “no binding (tested: 300 nM (highest analyte concentration))”.

B6: COVID19_R01_D02 (scFv, V domains shown)
VH: EVQLVESGGGLVQPGGSLRLSCAASGFTFDDYAMHWVRQAPGKGLEWVAIIYEGGSPHYADSVKGRFTISRDNSKNTLYLQMNSLRAEDTAVYYCARDRSGYLDYWGQGTLVTVSS
VL: B3 VL with R30S, S31N, G50D, R91Y
For B6, in test [4], the “IC50 [µg/mL] plaque” value is less than 3 µg/mL and the “IC50 [µg/mL] pseudotyped lenti neutralization” value came to 0.62 µg/mL. Further, in test [1], the affinity, expressed as Kd, was 2.8 nM; the off-rate constant (koff) amounted to 0.00058 s⁻¹; the on-rate (kon) was determined as 210000 M⁻¹ s⁻¹.

B7: COVID19_P04_B09 (scFv, V domains shown)
VH: EVQLVESGGGLVQPGGSLRLSCAASGFTFSNSDMNWVRQAPGKGLEWVSAISGTGDTTEYADSVKGRFTISRDNSKNTLYLQMNSLRAEDTAVYYCARDRSLMLDYWGQGTLVTVSS
VL: B3 VL
In test [1], B7 registered a Kd of 1.4 nM, a koff of 0.00032 s⁻¹ and an on-rate (kon) of 230000 M⁻¹ s⁻¹. For the same molecule, in test [2], the binding result was “no binding (tested: 300 nM (highest analyte concentration))”. Further, the binding result in test [3] was “no binding (tested: 300 nM (highest analyte concentration))”.

B8: COVID19_R01_A04 (scFv, V domains shown)
VH: EVQLVESGGGLVQPGGSLRLSCAASGFTFSDHYMSWVRQAPGKGLEWVSAISTSGDSTFYADSVKGRFTISRDNSKNTLYLQMNNLRAEDTAVYYCARDRSYYLDYWGQGTLVTVSS
VL: EIVMTQSPATLSVSPGERATLSCRASQSVRSNLAWYQQKPGQAPRLLIYGASTRATGIPARFSGSGSGTEFTLTISSLQSEDFAVYYCQQFGTSPPGLSFGGGTKVEIKR
In test [1], B8 displayed a Kd of 10.9 nM, a koff of 0.012 s⁻¹ and an association rate constant (kon) of 1.1e+06 M⁻¹ s⁻¹.

B9: COVID19_P04_D08 (scFv, V domains shown)
VH: EVQLVESGGGLVQPGGSLRLSCAASGFTFTNYAMTWVRQAPGKGLEWVSTMSNIGGDTYYADSVKGRFTISRDNSKNTLYLQMNSLRAEDTAVYYCARDRRVYLDYWGQGTLVTVSS
VL: DIQMTQSPSSLSASVGDRVTITCRASQSISSYLNWYQQKPGKAPKLLIYAASSLQSGVPSRFSGSGSGTEFTLTISSLQSEDFAVYYCQQYGSSPLTFGGGTKVEIKR
In test [1], B9 gave a dissociation constant Kd of 40.7 nM, a koff of 0.0113 s⁻¹ and an on-rate (kon) of 279000 M⁻¹ s⁻¹. For the same molecule, the binding result in test [2] is listed as “no binding (tested: 300 nM (highest analyte concentration))”. In addition, in test [3], the binding result is “no binding (tested: 300 nM (highest analyte concentration))”.

B10: COVID19_P04_G03 (scFv, V domains shown)
VH: EVQLVESGGGLVQPGGSLRLSCAASGFTVSSNYMNWVRQAPGKGLEWVSVVYPGGSTYYADSVKGRFTISRDNSKNTLYLQMNSLRAEDTAVYYCARDRSYYLDYWGQGTLVTVSS
VL: not shown
Consider B10, for which, in test [1], the Kd stood at 7.1 nM, the off-rate (koff) stood at 0.00045 s⁻¹ and the kon is 63000 M⁻¹ s⁻¹. The binding result in test [2] is reported as “no binding (tested: 300 nM (highest analyte concentration))”. In test [3], the binding result is “no binding (tested: 300 nM (highest analyte concentration))”.

B11: COVID19_R01_B10 (scFv, V domains shown)
VH: B10 VH with N35S, V51I, Y58F
VL: EIVMTQSPATLSVSPGERATLSCRASQSVSSSYLAWYQQKPGQAPRLLIYGASTRATGIPARFSGSGSGTEFTLTISSLQSEDFAVYYCQQASSTPLTFGGGTKVEIKR
As to B11, in test [1], the Kd was found to be 30.4 nM, the koff was found to be 0.00294 s⁻¹ and the kon is 96900 M⁻¹ s⁻¹.

B12: COVID19_P04_G05 (scFv, V domains shown)
VH: B10 VH with F27L, T28S, S30T, N35S, V51I, Y58F
VL: not shown
In test [1], B12 yielded a dissociation constant (Kd) of 0.72 nM, an off-rate constant (koff) of 5.7e-05 s⁻¹ and a kon of 79000 M⁻¹ s⁻¹. Further, the binding result in test [2] was “no binding (tested: 300 nM (highest analyte concentration))”. In addition, in test [3], the binding result is on record as “no binding (tested: 300 nM (highest analyte concentration))”.
